B1: Ephrin-B2 (Mus musculus), P52800 (parent)
chain: MAMARSRRDSVWKYCWGLLMVLCRTAISRSIVLEPIYWNSSNSKFLPGQGLVLYPQIGDKLDIICPKVDSKTVGQYEYYKVYMVDKDQADRCTIKKENTPLLNCARPDQDVKFTIKFQEFSPNLWGLEFQKNKDYYIISTSNGSLEGLDNQEGGVCQTRAMKILMKVGQDASSAGSARNHGPTRRPELEAGTNGRSSTTSPFVKPNPGSSTDGNSAGHSGNNLLGSEVALFAGIASGCIIFIVIIITLVVLLLKYRRRHRKHSPQHTTTLSLSTLATPKRGGNNNGSEPSDVIIPLRTADSVFCPHYEKVSGDYGHPVYIVQEMPPQSPANIYYKV
partner: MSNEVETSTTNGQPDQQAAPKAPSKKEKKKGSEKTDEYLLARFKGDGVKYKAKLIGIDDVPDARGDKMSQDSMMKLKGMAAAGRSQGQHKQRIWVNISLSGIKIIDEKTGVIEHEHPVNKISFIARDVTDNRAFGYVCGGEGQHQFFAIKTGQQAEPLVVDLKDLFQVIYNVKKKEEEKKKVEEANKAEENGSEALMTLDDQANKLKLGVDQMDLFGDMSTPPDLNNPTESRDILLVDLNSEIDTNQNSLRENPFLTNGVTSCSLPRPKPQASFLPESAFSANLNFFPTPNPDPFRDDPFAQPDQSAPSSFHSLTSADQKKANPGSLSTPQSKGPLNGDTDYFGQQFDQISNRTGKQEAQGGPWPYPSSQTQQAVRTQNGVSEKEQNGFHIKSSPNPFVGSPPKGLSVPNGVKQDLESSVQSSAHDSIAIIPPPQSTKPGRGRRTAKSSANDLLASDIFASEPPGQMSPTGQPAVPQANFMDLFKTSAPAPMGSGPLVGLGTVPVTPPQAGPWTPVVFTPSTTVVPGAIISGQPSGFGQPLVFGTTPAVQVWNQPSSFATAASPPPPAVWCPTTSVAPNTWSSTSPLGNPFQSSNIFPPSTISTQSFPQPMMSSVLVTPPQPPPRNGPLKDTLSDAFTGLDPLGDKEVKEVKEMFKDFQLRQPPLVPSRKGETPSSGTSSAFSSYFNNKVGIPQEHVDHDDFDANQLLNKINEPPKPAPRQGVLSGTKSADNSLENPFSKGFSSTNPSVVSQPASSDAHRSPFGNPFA

Variants of: B1
Conditions: with dab2_rat Dab2, O88797

| Variant | effect of a mutation on the interaction |
| --- | --- |
| MAMARSRRDSVWKYCWGLLMVLCRTAISRSIVLEPIYWNSSNSKFLPGQGLVLYPQIGDKLDIICPKVDSKTVGQYEYYKVYMVDKDQADRCTIKKENTPLLNCARPDQDVKFTIKFQEFSPNLWGLEFQKNKDYYIISTSNGSLEGLDNQEGGVCQTRAMKILMKVGQDASSAGSARNHGPTRRPELEAGTNGRSSTTSPFVKPNPGSSTDGNSAGHSGNNLLGSEVALFAGIASGCIIFIVIIITLVVLLLKYRRRHRKHSPQHTTTLSLSTLATPKRGGNNNGSEPSDVIIPLRTADSVFCPHYEKVSGDYGHPVYIVQEMPPQSPANIYYKS [V336S] | disrupting interaction strength |

Reference: IntAct's records for PubMed 23354168
